Test results as given in patent US20230111418A1 (TESARO, published 2023).
One block for each binder: values may come before it.

What was measured:
[1] = target: T1, Human PD-1 on the cell surface (human, UniProt Q15116 25-288); experiment: cell-based or functional assay
[2] = target: T1, Human PD-1 on the cell surface; experiment: cell-based or functional assay; remark: listed apart in the source
[3] = target: T2, Human PD-1 (SPR analyte/ligand; human PD-1 Fc fusion) (human, UniProt Q15116 25-167, limits assumed); experiment: SPR
T2 construct: not shown: Fc part of the fusion
T2 sequence (Q15116 25-167 limits assumed): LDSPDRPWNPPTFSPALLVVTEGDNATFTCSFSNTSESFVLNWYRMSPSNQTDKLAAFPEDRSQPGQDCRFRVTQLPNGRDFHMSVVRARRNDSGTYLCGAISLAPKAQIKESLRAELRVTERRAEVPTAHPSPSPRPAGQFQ

[4] = target: T3, Cynomolgus monkey PD-1 (SPR analyte/ligand; cynomolgus monkey PD-1 Fc fusion) (cynomolgus monkey, UniProt B0LAJ3 25-170); experiment: SPR
T3 construct: also called Cyno PD-1
T3 sequence (B0LAJ3 entry or part of it limits assumed): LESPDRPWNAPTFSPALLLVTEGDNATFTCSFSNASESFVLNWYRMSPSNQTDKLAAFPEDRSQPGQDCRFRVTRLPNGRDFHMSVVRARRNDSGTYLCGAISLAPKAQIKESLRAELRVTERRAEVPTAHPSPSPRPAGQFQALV

[5] = target: T1, Human PD-1 on the cell surface; experiment: flow cytometry on CHO-K1 cells expressing human PD-1
[6] = target: T4, Cynomolgus monkey PD-1 expressed on CHO-K1 cells (cynomolgus monkey, UniProt B0LAJ3 25-288); experiment: flow cytometry on CHO-K1 cells expressing cynomolgus monkey PD-1
T4 construct: also called Cyno PD-1; cell surface cynomolgus PD-1
T4 sequence (B0LAJ3 entry or part of it limits assumed): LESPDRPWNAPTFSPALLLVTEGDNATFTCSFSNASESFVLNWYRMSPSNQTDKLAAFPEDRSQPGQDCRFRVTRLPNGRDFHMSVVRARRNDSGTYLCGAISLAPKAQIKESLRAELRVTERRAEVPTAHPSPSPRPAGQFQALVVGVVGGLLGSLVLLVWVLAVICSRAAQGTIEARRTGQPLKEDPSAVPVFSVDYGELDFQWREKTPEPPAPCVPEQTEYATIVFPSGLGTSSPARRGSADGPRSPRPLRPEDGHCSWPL

T1 sequence (Q15116 25-288): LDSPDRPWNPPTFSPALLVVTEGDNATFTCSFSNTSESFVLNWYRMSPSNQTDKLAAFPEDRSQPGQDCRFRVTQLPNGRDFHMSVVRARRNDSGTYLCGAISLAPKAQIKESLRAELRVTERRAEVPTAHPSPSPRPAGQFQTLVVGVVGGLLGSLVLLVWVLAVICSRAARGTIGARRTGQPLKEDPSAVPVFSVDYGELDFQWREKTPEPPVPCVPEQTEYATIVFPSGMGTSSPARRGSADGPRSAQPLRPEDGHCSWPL

mean IL-2 stimulation ratio in fRO assay, Day 3, across all dose levels [1]: 1 ratio | IL-2 stimulation ratio in fRO assay, 1 mg/kg, Baseline (n=6) [2]: 1.69 ratio | IL-2 stimulation ratio in fRO assay, 1 mg/kg, Day 3 (n=6) [2]: 1.01 ratio | IL-2 stimulation ratio in fRO assay, 1 mg/kg, Day 15 (n=6) [2]: 1 ratio | IL-2 stimulation ratio in fRO assay, 1 mg/kg, Day 22 (n=2) [2]: 1.32 ratio | IL-2 stimulation ratio in fRO assay, 1 mg/kg, Day 29 (n=2) [2]: 1.08 ratio | IL-2 stimulation ratio in fRO assay, 3 mg/kg, Baseline (n=3) [2]: 1.62 ratio | IL-2 stimulation ratio in fRO assay, 3 mg/kg, Day 3 (n=3) [2]: 0.927 ratio | IL-2 stimulation ratio in fRO assay, 3 mg/kg, Day 15 (n=3) [2]: 0.977 ratio | IL-2 stimulation ratio in fRO assay, 10 mg/kg, Baseline (n=4) [2]: 1.86 ratio | IL-2 stimulation ratio in fRO assay, 10 mg/kg, Day 3 (n=3) [2]: 1.05 ratio | IL-2 stimulation ratio in fRO assay, 10 mg/kg, Day 15 (n=1) [2]: 0.86 ratio
B1: exemplary humanized monoclonal anti-PD-1 antibody (human IGHG4*01 heavy chain with Ser to Pro hinge mutation at S228, human IGKC*01 kappa light chain; CDRs SEQ … (antibody, human IgG4 S228P, kappa, V domains shown)
VH: EVQLLESGGGLVQPGGSLRLSCAASGFTFSSYDMSWVRQAPGKGLEWVSTISGGGSYTYYQDSVKGRFTISRDNSKNTLYLQMNSLRAEDTAVYYCASPYYAMDYWGQGTTVTVSS
VL: DIQLTQSPSFLSAYVGDRVTITCKASQDVGTAVAWYQQKPGKAPKLLIYWASTLHTGVPSRFSGSGSGTEFTLTISSLQPEDFATYYCQHYSSYPWTFGQGTKLEIKR
modifications: N-glycosylation at asparagine residue 293 (SEQ ID NO: 3)

Kd [3]: 0.3 nM | koff [3]: 0.00017 s⁻¹ | kon [3]: 570000 M⁻¹ s⁻¹ | Kd [4]: 0.53 nM | koff [4]: 0.00023 s⁻¹ | kon [4]: 430000 M⁻¹ s⁻¹ | EC50 [5]: 2 nM | EC50 [6]: 3.4 nM
B2: PD-1-binding agent (comprising SEQ ID NOs: 1 and 2) (antibody, V domains shown)
VH: B1 VH
VL: B1 VL
notes: It is probably the same humanized IgG4 (S228P)/kappa antibody as m2
